Measured values reported in publication PMC5318895, “Inhibition of N1-Src kinase by a specific SH3 peptide ligand reveals a role for N1-Src in neurite elongation by L1-CAM” (Scientific Reports, 2017).
Blank lines part the entries; values can stand above or below the molecule they belong to. No end group written: not given here.

Tests used:
N1-Src [1] = molecular target: T1, N1-Src (Rattus norvegicus, UniProt Q9WUD9); assay: morphology of COS7 cells transfected with N1-Src-FLAG; assay type: cell-based; conditions: for effect on N1-Src-induced shrinkage of the cell soma (cell area) / effect on number of neurites (processes) per cell: COS7, co-transfection with N1-Src-FLAG 48 h, mean, n = 3 experiments, one way ANOVA
Method: (§1) Previous studies have shown that soluble SH3 ligands can enhance Src family kinase activity in vitro[20][21]. […] This experiment raised the possibility that PDN1 could act as an N1-Src inhibitor in cells. […] We observed that COS7 cells transfected with N1-Src-FLAG underwent a striking change in morphology within 48 h (Fig. 3a). Similar to that previously observed in Xenopus epithelial cells, overexpression of the kinase induced the growth of neurite-like processes (Fig. 3b) and an approximate 35% reduction in area of the cell soma (Fig. 3c). […] Using cell morphology as a readout, we assessed the effect of CFP-PDN1 and PDN1(P5A) on N1-Src activity in cells. […] Furthermore, the peptides had no significant effect upon the morphology of C-Src transfected cells. We also assessed the effect of PDN1 on N2-Src expressing cells because the first five amino acids of its SH3 insert are identical to that in N1-Src[3].
Figure 3 CFP-PDN1 inhibits the biological activity of N1-Src in cells. (a) COS7 cells were transfected for 48 h with empty plasmid (FLAG), C-, N1- or N2-Src-FLAG in combination with CFP, CFP-PDN1 or CFP-PDN1(P5A) and processed for immunofluorescence (green = CFP, red = Src-FLAG). Scale bar = 10 μm. Twenty representative fields of view (~50 cells) per condition in each experiment were analysed to quantify (b) number of processes per cell and (c). Data were plotted as mean ± SEM (n = 3 experiments). Statistical analysis was performed by one way ANOVA and post-hoc Tukey test (*P < 0.05; ***P < 0.001; n.s = not significant).
COS7 cells were plated at a density of 3 × 10^4 cells per well of a 24 well plate or 10^5 cells per well of a 6 well plate and transfected using EcoTransfect 24 h after plating according to the manufacturer’s instructions (Oz Biosciences, Marseille, France). Rat cerebellar granule and hippocampal neurons were prepared as previously described[40][41] and approved by the Biology Ethics Committee, University of York. The animals were euthanised according to Schedule 1 of the UK Home Office Animals (Scientific Procedures) Act. Neurons were plated at a density of 2.5 × 10^5 cells per coverslip and transfected after 24 h using a calcium phosphate kit (Promega, Southampton, UK) or Lipofectamine2000 (Invitrogen, Paisley UK) according to the manufacturer’s instructions. Following transfection the medium was replaced with MEM culture medium with 10 μM arabinofuranosyl cytidine for the indicated time before fixing for staining and morphological analysis. For L1-CAM assays, a 10 μl droplet containing 25 μg/ml L1-CAM extracellular domain (R&D Systems) and 1 mg/ml fluorescein isothiocyanate (FITC) was spotted onto the centre of a poly-D-lysine coated coverslip and air dried for 1 h prior to plating neurons.
Analysis of COS7 cell area was performed with ImageJ software. The NeuronJ plugin[43] was used for the quantification of process length and branching in both COS7 cells and neurons. Where appropriate, statistical analyses of the data were performed with SigmaPlot software using one way ANOVA or Kruskal-Wallis tests with post-hoc pairwise comparisons by Tukey or Dunn tests respectively.

N1-Src [2] = molecular target: T1, N1-Src; assay: co-immunoprecipitation of N1-Src-FLAG and CFP-PDN1 from COS7 cells; assay type: binding; design: His; made in house; host or cells: E. coli; conditions: COS7 cells co-transfected with N1-Src-FLAG, lysed after 48 h; anti-FLAG IP, anti-GFP detection
[3] = system: cerebellar granule neurons; assay: L1-CAM-dependent neurite elongation in cultured cerebellar granule neurons; assay type: cell-based, rat; conditions: n = 3 experiments
Source text: A previous study of Src^−/− mice provided a possible mechanism for the effects of N1-Src upon neurite development. […] Src^−/− mice lack C-, N1- and N2-Src, but the isoform responsible for the impaired neurite outgrowth on L1-CAM was not identified in the study. We therefore investigated whether PDN1 affects L1-CAM-dependent neurite growth in cultured CGNs. Recombinant L1-CAM extracellular domain mixed with the fluorescent dye FITC were spotted in the centre of poly-D-lysine (polyLys) coated glass coverslips (Fig. 6a). CGNs were then plated over the whole surface of the coverslip, allowing a direct comparison between neurons growing on L1-CAM and polyLys.
Figure 6 PDN1 inhibits neurite elongation mediated by L1-CAM. (a) Schematic of the poly-D-lysine (polyLys) coated coverslips treated with a droplet of L1-CAM and FITC. […] (b) Cultured cerebellar granule neurons transfected with CFP were grown on the indicated concentrations of L1-CAM and the length of the longest neurite (axon) determined. (c,d) CGNs were plated on polyLys coated coverslips with a region of […] L1-CAM (see a) and transfected after 24 h with CFP (control) or CFP-PDN1 for 48 h prior to fixing and processing for fluorescence microscopy. Length of longest neurite (c) and branches on the longest neurite (d) were quantified for neurons in the polyLys or L1-CAM regions using the NeuronJ plugin for ImageJ. All data were plotted as mean ± SEM, n = 3 experiments with 30 cells analysed per condition for each experiment. Statistical analysis was performed by one way ANOVA and post-hoc Tukey test (*P < 0.05; **P < 0.01; n.s = not significant).
Using a concentration of 25 μg/ml L1-CAM, which induced a 50% increase in neurite length, we then determined the effect of CFP-PDN1 transfection on neurite length on L1-CAM or polyLys. […]
(§2) Analysis of COS7 cell area was performed with ImageJ software. The NeuronJ plugin[43] was used for the quantification of process length and branching in both COS7 cells and neurons. […]

N2-Src = assay: morphology of COS7 cells transfected with N2-Src-FLAG; assay type: cell-based; conditions: COS7, co-transfection with N2-Src-FLAG 48 h; n = 3 experiments
Method: as §1
Figure 3 CFP-PDN1 inhibits the biological activity of N1-Src in cells. […] Twenty representative fields of view (~50 cells) per condition in each experiment were analysed to quantify (b) number of processes per cell and (c). […]
as §2

[4] = system: cerebellar granule neurons; assay: neurite outgrowth of cultured cerebellar granule neurons (polyLys); assay type: cell-based, rat; conditions: n = 3 experiments, 30 cells per condition
Method: We next took advantage of the specificity of PDN1 to investigate the role of endogenous N1-Src in neurite outgrowth in cultured neurons. CFP-PDN1 or -PDN1(P5A) was transfected into 1 DIV CGNs and their morphology analysed after […]. During CGN development in vivo and immediately after plating in vitro, the cells grow two processes before polarising to yield a single axon and the second process retracts to become a dendrite and further dendrites are initiated. The axon then extends further before bifurcating. […] To further confirm that N1-Src regulates neurite growth we employed an shRNA expressing plasmid (pSUPER-GFP) to knockdown N1-Src in neurons. […] The successful N1-Src shRNA plasmid was transfected into hippocampal neurons, and the length of the longest neurite in GFP-positive neurons was assessed at 48 h and 96 h post-transfection. […] Thus, perturbing N1-Src activity with PDN1 or knockdown of the protein produces the same neurite phenotype in primary neuronal cultures.
Figure 4 PDN1 inhibits neurite growth in cultured neurons. (a) Cultured cerebellar granule neurons were transfected 24 h after plating with CFP, CFP-PDN1 or CFP-PDN1(P5A) for 48 h prior to fixing and processing for immunofluorescence. Scale bar = 10 μm. (b,c) Length of longest neurite and branches per longest neurite were quantified using the NeuronJ plugin for ImageJ. Data were plotted as mean ± SEM, n = 3 experiments with 30 cells analysed per condition for each experiment. Statistical analysis was performed by one way ANOVA and post-hoc Tukey test (*P < 0.05; ***P < 0.001; n.s = not significant).
COS7 cells were plated at a density of 3 × 10^4 cells per well of a 24 well plate or 10^5 cells per well of a 6 well plate and transfected using EcoTransfect 24 h after plating according to the manufacturer’s instructions (Oz Biosciences, Marseille, France). […]
as §2

N1-Src [5] = molecular target: T1, N1-Src; assay: inhibition of N1-Src phosphorylation of GST-Y by free soluble peptide; assay type: biochemical; design: His; made in house; host or cells: E. coli; conditions: free soluble peptide titrated with 5 nM N1-Src and GST-Y; phosphotyrosine immunoblot densitometry; n = 3
Method: Previous studies have shown that soluble SH3 ligands can enhance Src family kinase activity in vitro[20][21]. […] This experiment raised the possibility that PDN1 could act as an N1-Src inhibitor in cells. […] We observed that COS7 cells transfected with N1-Src-FLAG underwent a striking change in morphology within 48 h (Fig. 3a). Similar to that previously observed in Xenopus epithelial cells, overexpression of the kinase induced the growth of neurite-like processes (Fig. 3b) and an approximate 35% reduction in area of the cell soma (Fig. 3c). […] Using cell morphology as a readout, we assessed the effect of CFP-PDN1 and PDN1(P5A) on N1-Src activity in cells. […] We also assessed the effect of PDN1 on N2-Src expressing cells because the first five amino acids of its SH3 insert are identical to that in N1-Src[3].
Figure 2 PDN1 inhibits N1-Src activity in vitro. GST-Y was incubated with 5 nM N1-Src and the indicated concentrations of either PDN1 or PDN1(P5A) and the extent of phosphorylation determined by densitometry of phosphotyrosine immunoreactivity. […]
Phosphorylation reactions were performed as previously described, prepared in kinase reaction buffer (100 mM Tris, 10 mM MgCl2, pH 7.5) and initiated by the addition of pre-warmed ATP (0.5 mM final concentration) and incubated at 30 °C for the indicated times. […] Due to the non-quantitative measurement of V, Vmax was not determined. […]

[6] = CGNs transfected with CFP fusions, one way ANOVA

Molecule: CFP-PDN1: PDN1 fused to CFP, expressed in transfected cells (WHRMPAYTAKYP; also: fused to CFP, end not given here)
effect on N1-Src-induced shrinkage of the cell soma (cell area) (N1-Src [1]): prevented both the shrinkage of the cell soma
effect on number of neurites (processes) per cell (N1-Src [1]): reduced the number of neurites per cell
selectivity for N1-Src in cells (N1-Src [1]; COS7, compared with C-Src and N2-Src): selective for the N1-Src splice variant in cells
length of longest neurite on L1-CAM compared with polyLys ([3]; CFP-PDN1 transfected CGNs on L1-CAM (25 μg/ml in text), 48 h, 30 cells per condition): not significantly different to that on polyLys
binding to N1-Src in cells (co-immunoprecipitation) (N1-Src [2]): can bind N1-Src in cells
rescue of morphology of N2-Src transfected cells (N2-Src): did not rescue wild type morphology
inhibition of mean length of longest neurite on polyLys ([4]; CGNs grown on polyLys, transfected 24 h after plating, 48 h): approximately 40%
branches per longest neurite [4, 6]: longest neurite branching was inhibited
length of longest neurite [4, 6]: reduced in length

B1: L1-CAM: Recombinant L1-CAM extracellular domain (R&D Systems) (protein, UniProt P32004 20-1120, looked up)
extracellular domain: IQIPEEYEGHHVMEPPVITEQSPRRLVVFPTDDISLKCEASGKPEVQFRWTRDGVHFKPKEELGVTVYQSPHSGSFTITGNNSNFAQRFQGIYRCFASNKLGTAMSHEIRLMAEGAPKWPKETVKPVEVEEGESVVLPCNPPPSAEPLRIYWMNSKILHIKQDERVTMGQNGNLYFANVLTSDNHSDYICHAHFPGTRTIIQKEPIDLRVKATNSMIDRKPRLLFPTNSSSHLVALQGQPLVLECIAEGFPTPTIKWLRPSGPMPADRVTYQNHNKTLQLLKVGEEDDGEYRCLAENSLGSARHAYYVTVEAAPYWLHKPQSHLYGPGETARLDCQVQGRPQPEVTWRINGIPVEELAKDQKYRIQRGALILSNVQPSDTMVTQCEARNRHGLLLANAYIYVVQLPAKILTADNQTYMAVQGSTAYLLCKAFGAPVPSVQWLDEDGTTVLQDERFFPYANGTLGIRDLQANDTGRYFCLAANDQNNVTIMANLKVKDATQITQGPRSTIEKKGSRVTFTCQASFDPSLQPSITWRGDGRDLQELGDSDKYFIEDGRLVIHSLDYSDQGNYSCVASTELDVVESRAQLLVVGSPGPVPRLVLSDLHLLTQSQVRVSWSPAEDHNAPIEKYDIEFEDKEMAPEKWYSLGKVPGNQTSTTLKLSPYVHYTFRVTAINKYGPGEPSPVSETVVTPEAAPEKNPVDVKGEGNETTNMVITWKPLRWMDWNAPQVQYRVQWRPQGTRGPWQEQIVSDPFLVVSNTSTFVPYEIKVQAVNSQGKGPEPQVTIGYSGEDYPQAIPELEGIEILNSSAVLVKWRPVDLAQVKGHLRGYNVTYWREGSQRKHSKRHIHKDHVVVPANTTSVILSGLRPYSSYHLEVQAFNGRGSGPASEFTFSTPEGVPGHPEALHLECQSNTSLLLRWQPPLSHNGVLTGYVLSYHPLDEGGKGQLSFNLRDPELRTHNLTDLSPHLRYRFQLQATTKEGPGEAIVREGGTMALSGISDFGNISATAGENYSVVSWVPKEGQCNFRFHILFKALGEEKGGASLSPQYVSYNQSSYTQWDLQPDTDYEIHLFKERMFRHQMAVKTNGTGRVRLPPAGFATE
modifications: extracellular domain
increase in neurite length by L1-CAM ([3]; 25 μg/ml L1-CAM coating, CFP-transfected CGNs): 50%
neurite outgrowth on L1-CAM ([3]; CFP-transfected CGNs on indicated L1-CAM concentrations): increases neurite outgrowth in a dose dependent manner

The next lines start with results.

binding to N1-Src in cells (co-immunoprecipitation) (N1-Src [2]): greatly reduced
Molecule: CFP-PDN1(P5A): PDN1(P5A) mutant fused to CFP, expressed in transfected cells (WHRMAAYTAKYP; also: fused to CFP, end not given here)
effect on N1-Src-induced shrinkage of the cell soma (cell area) (N1-Src [1]): no significant effect on either parameter
effect on number of neurites (processes) per cell (N1-Src [1]): no significant effect on either parameter

inhibition of GST-Y phosphorylation (N1-Src [5]): no significant inhibition
Molecule: PDN1(P5A): PDN1(P5A) mutant peptide (WHRMAAYTAKYP)
